Source: article PMC5042399

Assays:
[1] = molecular target: DNA topoisomerase I (TOP1), full-length recombinant (UniProt P11387)
[2] = molecular target: DNA topoisomerase IIα (TOP2A), recombinant (UniProt P11388)
Sequence of UniProt P11388 (P11388 whole entry): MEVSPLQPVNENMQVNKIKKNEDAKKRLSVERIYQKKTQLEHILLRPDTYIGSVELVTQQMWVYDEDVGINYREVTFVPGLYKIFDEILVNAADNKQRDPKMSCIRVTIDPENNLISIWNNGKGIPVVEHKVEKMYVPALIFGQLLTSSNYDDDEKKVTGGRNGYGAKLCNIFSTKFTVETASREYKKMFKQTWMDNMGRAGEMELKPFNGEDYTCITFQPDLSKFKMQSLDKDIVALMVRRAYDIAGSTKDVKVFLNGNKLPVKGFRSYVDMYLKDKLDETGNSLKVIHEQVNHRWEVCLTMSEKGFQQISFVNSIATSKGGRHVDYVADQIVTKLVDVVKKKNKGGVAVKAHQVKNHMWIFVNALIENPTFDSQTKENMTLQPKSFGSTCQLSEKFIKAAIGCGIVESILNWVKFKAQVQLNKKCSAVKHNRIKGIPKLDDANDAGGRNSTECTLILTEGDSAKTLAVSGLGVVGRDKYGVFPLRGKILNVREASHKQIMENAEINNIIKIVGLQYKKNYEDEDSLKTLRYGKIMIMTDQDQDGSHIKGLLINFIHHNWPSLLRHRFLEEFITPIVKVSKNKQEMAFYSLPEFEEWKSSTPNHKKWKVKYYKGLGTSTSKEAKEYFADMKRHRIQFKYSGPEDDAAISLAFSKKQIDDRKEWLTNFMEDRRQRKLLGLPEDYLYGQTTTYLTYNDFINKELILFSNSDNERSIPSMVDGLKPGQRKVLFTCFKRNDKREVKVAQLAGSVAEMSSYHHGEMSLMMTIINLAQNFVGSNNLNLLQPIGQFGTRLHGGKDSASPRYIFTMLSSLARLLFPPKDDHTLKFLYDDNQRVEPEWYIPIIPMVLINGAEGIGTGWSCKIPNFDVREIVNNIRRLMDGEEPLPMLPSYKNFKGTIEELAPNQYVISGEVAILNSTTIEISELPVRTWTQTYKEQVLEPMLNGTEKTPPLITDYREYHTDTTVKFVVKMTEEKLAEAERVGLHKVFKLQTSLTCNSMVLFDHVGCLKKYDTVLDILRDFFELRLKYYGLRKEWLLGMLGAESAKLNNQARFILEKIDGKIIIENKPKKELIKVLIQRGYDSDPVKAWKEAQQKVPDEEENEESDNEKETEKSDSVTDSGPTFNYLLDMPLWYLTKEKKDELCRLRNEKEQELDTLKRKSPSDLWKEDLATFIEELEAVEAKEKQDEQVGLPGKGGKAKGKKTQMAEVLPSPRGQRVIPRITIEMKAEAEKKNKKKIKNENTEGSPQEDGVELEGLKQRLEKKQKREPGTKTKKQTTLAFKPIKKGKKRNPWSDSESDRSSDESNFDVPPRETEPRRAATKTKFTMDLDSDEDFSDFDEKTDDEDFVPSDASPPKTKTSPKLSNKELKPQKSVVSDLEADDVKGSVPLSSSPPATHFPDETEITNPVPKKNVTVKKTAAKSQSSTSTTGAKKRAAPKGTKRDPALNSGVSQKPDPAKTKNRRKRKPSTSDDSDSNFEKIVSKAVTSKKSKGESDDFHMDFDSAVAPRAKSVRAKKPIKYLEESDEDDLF

Sequence of UniProt P11387 (P11387 whole entry): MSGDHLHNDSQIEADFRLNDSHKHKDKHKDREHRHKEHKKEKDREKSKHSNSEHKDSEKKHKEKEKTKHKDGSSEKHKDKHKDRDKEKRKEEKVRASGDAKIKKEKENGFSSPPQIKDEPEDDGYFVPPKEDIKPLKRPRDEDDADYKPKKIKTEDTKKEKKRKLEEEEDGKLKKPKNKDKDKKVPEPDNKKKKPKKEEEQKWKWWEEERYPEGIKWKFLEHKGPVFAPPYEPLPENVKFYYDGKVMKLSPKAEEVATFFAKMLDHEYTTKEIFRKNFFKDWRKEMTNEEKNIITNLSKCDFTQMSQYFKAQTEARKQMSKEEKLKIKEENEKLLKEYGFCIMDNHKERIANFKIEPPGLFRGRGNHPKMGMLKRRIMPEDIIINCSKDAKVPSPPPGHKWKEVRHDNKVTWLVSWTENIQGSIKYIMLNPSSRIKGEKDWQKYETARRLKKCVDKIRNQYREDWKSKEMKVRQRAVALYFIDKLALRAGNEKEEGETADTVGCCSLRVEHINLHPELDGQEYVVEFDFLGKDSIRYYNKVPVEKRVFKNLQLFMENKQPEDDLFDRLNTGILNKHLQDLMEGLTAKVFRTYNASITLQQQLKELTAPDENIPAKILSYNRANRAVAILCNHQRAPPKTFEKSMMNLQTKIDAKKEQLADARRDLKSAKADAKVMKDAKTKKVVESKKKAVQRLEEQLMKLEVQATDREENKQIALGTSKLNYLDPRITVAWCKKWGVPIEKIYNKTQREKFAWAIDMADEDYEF

Row | Substance | stimulation of BLM unwinding of RNA:DNA substrate by a two-fold molar excess of TOP1 (specific activity with against without TOP1) [1] [fold] | stimulation of BLM unwinding of dsDNA substrate by 7 nM TOP2A (fold change relative to minus TOP2A) [2] [fold]
1 | BLM wild-type (WT), recombinant (from UniProt P54132 1-1417) (enzyme) | 1.5 | –
2 | BLM-Δ1332–1349, recombinant (from UniProt P54132 1-1417) (enzyme) | – | 3
